Data as given in the DeepSol protein solubility set.

Test: soluble on expression in E. coli; label from the status in PepcDB or PDB records

Row | Sequence | soluble on expression in E. coli
1 | MGSDKIHHHHHHMWPDRHAKHLTLGRSRQQMLEFENVSKSFWTGTQRKVILDRVSFRVELGKSMGILAPNGTGKSTLINMMAGLEKPDEGVIRRGCNISFPLGFMGGVVGRLSAMENSRYIARLYGMDPDYIEAYCRWLCGLGEYFDQPLGTYSSGMRARFSFALMLALDFDMYLIDEGMPASTDVEFNKKAGAILEERLRTTTIVIVSHQPATLEQFARQAAVLMDGQLHVFDTLEEAKQLYDYQTQG | not soluble
2 | MTSITPSIQFFAGIFEELSNVSLRREVRTGKRIVMMKFNQLQAIEGFNSFTKQSLNSLLLTDEEGEISVTPSATRFIFGGDEGDELQGVECKFEVERDDHWERFMRFMNRYAEANDMEYGERLEHHHHHH | soluble
3 | MSIRSWPAAERPRERLLELGAASLSDAELLAIFLRTGVAGKSAVDLARHLLNQFDGLRSLLDADQPAFTAQLGLGPAKFAQLQAVMEMARRHMAESLRRDSALENPAQVRNYLKAQLRHEPHEVFACLFLDNKHRVMTFEILFRGTINASYVHPRQVVKRALAHNAASLILCHNHPSGITTPSRSDIDLTKRLKEALKLVDVHVLDHVIVGDGEPLSMVEKGLM | not soluble
4 | AIAAESNQNTDGAVEEGEDENTGDSNLQMELSAFRAKWMSELQPSSGGQRSFSRNAELRRRQETAKEEKARELFLKAVEEEQNGAVYEAIKYYKSAMQLVPDIEFKINYSRTPDPERGGSYLESSENNREIDDLLTYFQHQLTLGNDAMKLCEHETETSQVHISALPFEVLMYIFRWVVSCDLDLRALEQLSLVCRGFYICARDPEIWRSACLRVWGRSCTKMLPYSSWREMFLERPRVRFDGVYISKTSYIRQGEESLDGFYRAWHQVEYYRYLRFFPDGQVMMLTTPEDPLVTVPRLRSKNSRMDSIMFGHYRLSQDTDNQTKVYVVVSKRKEEKVSEYQRSRFCRRNPVPEAERSFHVGLQLSSGGRQRFNKLVWIHHSCHITYRSTGETVVTAFDVDKMYTPLFFARVKSYTAFSERPL | soluble
5 | MMHKRDQDYWIFSAELRDAKVKDDQSSKPQIVTPLGISIKRILCTGTVTSKQGDDRMTRITVADPVGNFYVIGFSNGFNPEEKAMLDKVSVDDRIMVIGKISSYRNTEGNYLFSIRPELVSKIDDEAMKFWSLKAYYFAKRRYYAIREAQKSENPAAEILKESGYTMVEAEAAMNAINNFPNYDYQKLFELIEPAMSSIGSSGAIAEARSMILDYIKNNDLDGKGCRYEDIVVAAKNAGIDQSTVDEILNSLGSLGEIFEVSLKRYKFVDTP | not soluble
6 | GSQEQKGDAPTCGICHKTKFADGCGHNCSYCQTKFCARCGGRVSLRSNKVMWVCNLCRKQQE | soluble
7 | MTTTLFSSRIIQSALDFDVYKVNMMSAVAALYPDAMVSYKFIVRSEEDLSELLPEVKAEVLKLQDVRFTEDEIAYMKRVAPYLKPEFVEALRHFRFNPQSDVSFHNKTMSDGSSQLRITINGLWKETILYETIIMSIVSEVRSRQRWSDIPFEQFQTVLEDKVRYLKAELERRNITNFKFADMSTRRRFSFQAQRTMLEYLSKELPQCLTGTSNYHLARELDLTPIGTVAHEWFMGHQALVNVRDSQKIALQRWQKMFNGALGIALTDTIGIDAFLKDFDEELSHAYVGVRHDSGCPFTWGEKMIAHYESLGIDPMTKTLVFTDGLNFEQALDICEHFQGRVQVSFGIGTSLANDMGNYVNDQGEAYQPLSIVIKMVTCNGSPVAKISDEPEKAMCEDIFFLMNLKRRFEQPLDLNECRKLIDRLESEGQNYLIDALEHHHHHH | soluble
8 | MQLTKLTQEIFDHLYRDISEFRQTFDLPVAAPQTLNSQADTLHTSLAIEELTELAQADNKTEQADAIVDTVYVLMGRLVHLGHAKVEDNLAISYLIDLLLHVAANLNIDFLPCWDEVHSSNMSKVCRSEQEYLDTEKFYAEQGVKLMAVHQGEYIIAKCAEDFISESKTVRQGKVLKSVYYRPANLAALTQ | not soluble
9 | MAAVSIVFEAPDNYGGAPAVSKKPIDFDHLAQQTMGDKDLEIEVLQLFSRSARAALHEMAGADNKTVTATAHRLKGSAQAVGASAVSAAAAAVEEKGNDSALIAKLAAAIVEAENFILKLCR | not soluble
10 | MKNNQNSNIHLLRSAKHAEPVMLDIKQLVKTYDNGHQAVKGVDLSIHQGEFIVLVGPSGCGKSSILRSIAGLESITSGEIHLAGRRVDNEKPANRDIAMVFQNYALYPHMSVYDNLAYGLKNRGVDKQTIAAKIAKVAKTLKIEEYLDRKPAKLSGGQRQRVAMGRAIVRDPQLFLFDEPLSNLDAALRAHMRLEIKKLQRELGVTSVYVTHDQVEAMTLADRIVVVKQGEIEQVGTPAEVYHQPASTFVASFIGSPAMNFLPASIKQGQLHIAGKHCYLPQFDAMSSENITLGIRPEHASLHPLTNAIELKLDIQVVEPLGPNQLVHGKIIGLESEQDFIAVTAEIPLDVHQTLPIWVALEQLHLFDQQGKRFVQSHRSCTQSSKVASTRQQ | not soluble
11 | MTQIIKIDPLNPEIDKIKIAADVIRNGGTVAFPTETVYGLGANAFDGNACLKIFQAKNRPVDNPLIVHIADFNQLFEVAKDIPDKVLEIAQIVWPGPLTFVLKKTERVPKEVTAGLDTVAVRMPAHPIALQLIRESGVPIAAPSANLATRPSPTKAEDVIVDLNGRVDVIIDGGHTFFGVESTIINVTVEPPVLLRPGPFTIEELKKLFGEIVIPEFAQGKKEAEIALAPGMKYKHYAPNTRLLLVENRNIFKDVVSLLSKKYKVALLIPKELSKEFEGLQQIILGSDENLYEVARNLFDSFRELDKLNVDLGIMIGFPERGIGFAIMNRARKASGFSIIKAISDVYKYVNI | soluble
12 | MLRYLLLSMYLFYIKKRRCHHFFIIVNIILSVSMQNDNLPFKITACVYKIV | not soluble
13 | MDLEPIFLTPVFQERIWGGTKLAERFGYDIPSSQTGECWAVSAHPHGQTVVARGPFAGMTLGQLWEERRDLFGHFPSDRFPLLTKILDANADLSVQVHPDDEYAKTHEGGELGKTECWYIIDCKPGAKLIYGHYAETKGELRAMMEAGEWDRLLRKVPIRPGDFFYVPSGTIHALCEGTLVLETQQSSDTTYRVYDYDRVDSQGRKRELHLEKAIDVTTVPHRDIDVHPHVAEFPGATVTTFVEGDYFGVQKWDVHDAFASEQTKPFLIVSILKGEGELVHHERIYAIRQGDHFILPHQFGRFTIRGMLEAIASWPRAGK | not soluble
14 | MRTNVRLLAYRLLRKYEKEKFISREDVDSVLSFLDDRDRRFFKELVWGVVRKEELLDWYINQLLKKKDIPPAVRVALRMGAYQLLFMNSVPDYAAVSETVKLVKNENFKKLVNAVLRRLRTVPEPKELHLVYSHPEWIVNYWRSFLPEEAVLRIMKWNQEPLPVMLRVNSLAATKEEVIKILAEEGTEAVPGKHAPFSLIVRKLGVPMNDSRVINDGLASVQGESSQLVPFFMELRPGLRVLDTCAAPGGKTTAIAELMKDQGKILAVDISREKIQLVEKHAKRLKLSSIETKIADAERLTEYVQDTFDRVLVDAPCTSLGTARNHPEVLRRVNKEDFEKFSEIQLRMVQQAWQLLEKGGILLYSTCTVTKEENTEVVKRFVYEQKDVEVIDIRDKMKEFEVEGIWDGYGFLMLPDETITPFYISVLRKMG | soluble
15 | MGSDKIHHHHHHQEKVSSMSEKSAPGSIQQPTRAQQLMGDIDPKLAELTDKVLFGDVWERKQLSKRDRSLVTVAALISLNRPDQLRSHMALALQNGVTREELVETITQLAFYTGWPNAVSAVPVARDVFRAADAAASHPDQGAQAQDDRTITVIHAGSQPSTHGSADHFTGSVQVDSRFQAQAPARSGGGIVTFEPGARTAWHTHPLGQTLIVTAGIGLVQQWGGPVQVIKPGDIVWIPPGVKHWHGATRTSGMTHIAIAEALDGKSVDWMELVMDAQYLGGQPR | not soluble
16 | QTSAVQQKLAALEKSSGGRLGVALIDTADNTQVLYRGDERFPMCSTSKVMAAAAVLKQSETQKQLLNQPVEIKPADLVNYNPIAEKHVNGTMTLAELSAAALQYSDNTAMNKLIAQLGGPGGVTAFARAIGDETFRLDRTEPTLNTAIPGDPRDTTTPRAMAQTLRQLTLGHALGETQRAQLVTWLKGNTTGAASIRAGLPTSWTAGDKTGSGDYGTTNDIAVIWPQGRAPLVLVTYFTQPQQNAESRRDVLASAARIIAEGL | soluble
17 | MGSDKIHHHHHHMISASTLNSELINKIAQDFAQATSLAVVVVNIHGDEISELFNFTPFCQLMRQHPEHSGRCRMSDRCGGLEASKKDQLCIYRCHAGLTDFSIPLVIAGHLVGFVLCGQVRLSNDVELVDILNVDDRWQDDPALVQAFRDVPEMDYSRVIASADLLKLIVENCLKKQLNFVVIKDNPSQNDPAQASRAPSPHDGKMKKALRYIDAHLSDELRLEDVAAHVYLSPYYFSKLFKKYQGIGFNAWVNQQRMASAKELLCHSDWSIASIARNLGFSQTSYFCKVFRQTYQVTPQAFRQQINAGSQTESF | not soluble
18 | MQAYRGTGKTSQLISQKKPISILILGVDQGIEGRHDRGNSDTMILATMNPEKKEATMTSIPRDLLADIKGDGRGEGKYYMFRANSAYQVGGSKGATRTVKALLNTPVNYYMEVNMKALESMVEALGGVDVNVPFTFTYHTHFRKGKQHLNGKEALDYVRMRKEDPKGDYGRQMRQRQVINDIVRKGMSVNSITNYRKILKVFAKYVKTNLTFDDMLSIAMNYRGCTQNIKSGYIQGHNVWIGAAAMQVASTKELQRVSDLVRSSLGLKQEKLEHHHHHH | soluble
19 | MENVEKRLIQLFTTYLNKAKHHMQGGSDMPNELVIGLHCRGEFESHRSWMQPRVQRGLEERMLFSSHKRAQIYKEAATSSLVAASSAPGEVREG | soluble
20 | MGSDKIHHHHHHMSDLLEWQDLAQLPVSIFKDYVTDAQDAEKPFIWTEVFLREINRSNQEIILHIWPMTKTVILGMLDRELPHLELAKKEIISRGYEPVVRNFGGLAVVADEGILNFSLVIPDVFERKLSISDGYLIMVDFIRSIFSDFYQPIEHFEVETSYCPGKFDLSINGKKFAGLAQRRIKNGIAVSIYLSVCGDQKGRSQMISDFYKIGLGDTGSPIAYPNVDPEIMANLSDLLDCPMTVEDVIDRMLISLKQVGFNDRLLMIRPDLVAEFNRFQAKSMANKGMVSRDE | not soluble
21 | AAQPADIVLTQTPSSLPVSVGEKVTMTCKSSQTLLYSNNQKNYLAWYQQKPGQSPKLLISWAFTRKSGVPDRFTGSGSGTDFTLTIGSVKAEDLAVYYCQQYSNYPWTFGGGTRLEIKRGGGGSGGGGSGGGGSGGGGSEVQLQQSGPEVVKTGASVKISCKASGYSFTGYFINWVKKNSGKSPEWIGHISSSYATSTYNQKFKNKAAFTVDTSSSTAFMQLNSLTSEDSAVYYCVRSGNYEEYAMDYWGQGTSVTVSS | soluble
22 | MGSDKIHHHHHHMILDTLENLAHYTHLGPRIAKALQHLKETDFTQLPVGNYELEGKDIFVIVNDYETKPREVEPFEVHRKYIDVQYVVSGEEEFGYLPLADQTPSKPYYDKHDYAEFDYESNKARAAFIPFKAGMFALFFPQDMHMPGVSATPQKVRKVVIKVKI | not soluble
23 | GPGSMEDPVRCECQKHAQDDGYSQGELLPLTAFRQVEKRYKLYRYDRRTSRRLQVPETDFSDVVDFRNLEANTAANLACISTRECHEDDRLVKCCTFAGVPGMEVFPNFLTDAEQQEFCRAALLEYGDSRRHPNHLSTHASEPRETTRYEPPMRWATVGFSYQWSSKSYCKEKYSHFPRRLRKCVERIARLCNVSQPYEPQTSIVNYFPVGAMMMAHQDVSEEVLQQPLISISLGCSCVFLMGTESRDDTPCAFWLRSGDVIVVSGASRTAYHGVPRIMDDCPQYLCPQNETEEEEGEFYWREQMRHLRVNINVRQVYPDRCEFLNE | not soluble
